# Experimental data taken from article PMC11053944, “FRET Assays for the Identification of C. albicans HSP90-Sba1 and Human HSP90α-p23 Binding Inhibitors” (Pharmaceuticals, 2024).
# Tests used:
# [1] = target: C. albicans HSP90 (without fluorescent protein) (C. albicans) (UniProt P46598)
# [2] = target: C. albicans HSP90 (without fluorescent protein) (C. albicans) (UniProt P46598); remark: listed apart in the source
substance,measurement,setting,value
C. albicans Aha1 (from UniProt A0A1D8PU72 1-346) (natural protein),"HSP90 ATPase activity (ADP-Glo), 2.5 µM HSP90 with 1-20 µM Aha1, 1 mM ATP, 1 h at 30 °C; fold of HSP90 alone",[1],7 fold
same,"HSP90 ATPase activity (ADP-Glo), 2.5 µM HSP90 with Aha1 (20 µM) and Sba1 (20 µM) together, 1 mM ATP; fold of HSP90 alone",[2],1.9 fold
